Reference: a protein production outcome set (Wang et al. 2014)

test: label from the status in PepcDB records

**Q.** For “MGEYCEKDFRSLQRCAEMNNIRIFKFLVILYSLLLIASSFVYYYREDIYIRPESYFYLLTLAVGVTFAQIIFFGRNSRSEVKFLIFVEVLLVALSFTLTQQALYKTVLGRDPWFHWILVEEIVKRGSIPPYEQIPIPYVRMPNFHLVIASGIVLTNLSYKWAQVLFAGFPTLILLMLVAFLYSKKLFDDQVGLVSILLVAISDNVLDMVGKNIVPNTLGVALAFLIFYLIYFREYHNLMIKFLSVLVAIALAFMHTVSLTFLIWQIFVISILSLILKDKSAKFYLAHFAFLIVSALFVWGIYSGFYLKSLVIIFKQLFIYGFDIERYEAKLPTTFLDAVIARSGMVLYFAIAGIITFYLLVKTLKRRAFGIKLSTLSSILATISILAGAVSFLTPALSGIAHRFWYYGEVLSSAFVGSVLANLYERKKVIIVFNLIFICALSMLMFKANVANDDNPLVPYYSQRTGWHDSEIEAGKFVISKQGNIPIASDWDYSWNLRYLKTSLMASGALKDINRVTPKTFEEVKNCNCLFVFRKDLLENRLFYLGGRWTQTPHLPLSTLNLVIKELSENEGIIYNNNNILIMHLV”, which protein production is on record?
**A.** failed

**Q.** Which protein production does the source give for “MGEYYHATVNGVVEYGAFVDLSEHVSGLIHESTYSGDPDLAVDDDVIVHLSAVRDNGDLSFEFVDPEEYRTEQRSLEHHHHHH” here?
**A.** failed

**Q.** For “MGFLDKVEKSIEGAVSGVFARAFRGEVEPVEIAGRLQRELDSEAQILSRDKSLVPNDFVVRLSSRDYERLVPYTKTLNAEIIPTLRDHASERHYVFNGPIHIRYDLDDALPVGKFTVLTGENHAKAVSDRRAPLVLEVDGVRHPLTPPGLTIGRGSDADIRINDPGISRLHARINVWPQGNDIGLSIEDLDSTNGVTVNGVKVTSTELGDGSRIEIGSTRMLVHSPTRI”, which protein production is on record?
**A.** failed

**Q.** With “MGFTDSIREHVREHRTGMVHDLMFAVVWVAIVNFLFSAVFTDAPSWAFYMFMLAGIPAYFGFFFSLSMARAQQDSQ” as the sequence, how does the protein production read?
**A.** failed

**Q.** With “MGFTELNSVEHYIIHQISGVNLNDAQCKNQVSEPQATYALQWQFKSSEQLGRDVNEVLVESELVKALIRLNPEIEANPHLADEVIHKLRAILISVNQVGLVKANEEFFAWMTGEKTMPFGENNRHVPVKLIDLEDLTRNGYVVTNQFRIHHRETKIPDVVLMINGIPVVVGEAKTPIRPSVSWLDGAHEVHNIYENAVPQLFVPNILSFATEGKELFYGAIRCPLEFWAPWRTEEDDNSKGIGQVSKALGLTEIGKELIDLLSPVRLLDIMRNFSLFTTNKKKQRIKVIPRFQQYEGANKIVERVIEGKIKKGLIWHFQGSGKSLLMVFAAQKLRRTAQLKSPTVIVLVDRTDLDTQISGTFNAADVANVESTDSIKELQRMLERDTRKIIISMIHKFRDAKPNMNTRENIIVLVDEAHRTQEGDLGRQMRAALPNAFLFGLTGTPVNKADKNTFWAFGAEEDKGGYMSRYTFHDSIRDEATLPLHFEPRLVDVHVDKEALDKAFKDFKESAALSDEEADALNQKSAKMSAFLKSPERVEKIVEDIAIHFMDKVEPHGFKAMVVTPDREACVQYKEELDKHFPESASKVVISTSANDDFEFKQKWGVDKSQQEKLVDEFNDEKSDLKFLVVTAKLLTGFDAPICQTMYLDKSIKDHTLLQAICRTNRLYPNKTFGCIVDYFGVFDDAAKALEFDEESVQQVISNLSELRSKLPQAMQDTLAHFIGVDRSLEGFEGLEAAQNAIGDNDKKDAFALDFKYLAKLWESLSPDSVLDEYNEDYKWLAQVYESVKPASDNIGKLLWLALGAQTTQLIHDNVHVGDVHNLEEFVLDADVIENIFNNPDPRKIKQLEKELAKRFKDRGDLPVFKSLSERLEELRDKAEKGLIASIDFVKELCKIAKETVQAEKDLDDELQEKTPQAALTDLFLELKDDQTPAVVERIVTDIDAIVRIVRFPGWQTTTGGEREVQKSLRKALLKYKLHTDQTLFDRAYGYIKEYY” as the sequence, how does the protein production read?
**A.** failed

**Q.** With “MGGATSGAVSSLNSRLALAHTPLLNTPQKPVDCRPHRTRTSDSAPMELHYRITPAHTEAWIAEPLKQELLKDDQQHVRAMSTFARWQSRFIGPVMFTLCLIGGCLSIYFPERNFTAEKVIAMVAFALIFIPLWWRFSGRWIKHLQARIAATPIKPQAPLRGLSQRLIETRLRAVEGTYCLNFDDQGFTLLNARGGQSSLAWKQIASVQEIPDFYLVADADMERQGVACFIAKHTDLMPTEAYQQGLQAFLSQCPAALPAH” as the sequence, how does the protein production read?
**A.** failed

**Q.** With “MGGDLRKCSFIKLEAHQNRVMTCVWCNKKGLLATSGNDGTIRVWNVTKKQYSLQQTCVFNRLEGDAEESLGSPSDPSFSPVSWSISGKYLAGALEKMVNIWQVNGGKGLVDIQPHWVSALAWPEEGPATTWSGESPELLLVGRMDGSLGLIEVVDVSTMHRRELEHCYRKDVSVTCIAWFSEDRPFAVGYFDGKLLMGTKEPLEKGGIVLIDAHKVKTIFFMLAFLFCLVFCVYVF” as the sequence, how does the protein production read?
**A.** failed
